Results on one substance are retold here after publication PMC6858856.

Read-outs that look alike come from different tables or passages of the source.

In assay [1] the target is FANCB-FAAP100 heterodimer (Gallus gallus) (Gallus gallus). Kind of assay: cryo-EM structure.
For assay [2] the target is unchanged. As to the kind of experiment: cryo-EM structure. This is another data set of the same source.

In the case of “FANCB-FAAP100 heterodimer (Gallus gallus) (complex)”, the stoichiometry N in assay [1] and in assay [2] was 2 each time.

A word on the stoichiometry N: it is the number of molecules, sites or subunits per partner or assembly.
